Assay results from patent US20260022155A1.

Molecular target: HVEM expressed on cell lines (KTPloCD86A2 HVEM; K562CD19/HVEM) (UniProt Q92956)
Assay: cell-based or functional assay
Conditions: scale: times higher than CD19-28z electroporated T cells

UniProt Q92956, sequence (Q92956 39-283 limits assumed): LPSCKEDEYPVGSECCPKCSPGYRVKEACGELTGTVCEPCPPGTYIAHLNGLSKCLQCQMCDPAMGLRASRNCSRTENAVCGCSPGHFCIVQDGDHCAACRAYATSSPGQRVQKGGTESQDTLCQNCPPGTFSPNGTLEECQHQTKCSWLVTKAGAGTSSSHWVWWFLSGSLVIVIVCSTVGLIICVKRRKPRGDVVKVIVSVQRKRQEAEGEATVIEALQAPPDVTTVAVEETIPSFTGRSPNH

- IL-2 production (ELISA) of T cells co-electroporated with CD19z and BTLA-CD28 CCR: 4
Substance: BTLA-CD28 CCR (receptor)
